According to the Human Domainome abundance scans (Beltran et al. 2025):
± gives the uncertainty stated by the source.

B1: Unconventional myosin-Ie, residues 1051 to 1108; numbered along this chain, Q12965 (parent)
chain: PQVPQCKALYAYDAQDTDELSFNANDIIDIIKEDPSGWWTGRLRGKQGLFPNNYVTKI

Variants of: B1
Experiment: abundance fitness (aPCA) (normalised: wild type 0, dead -1); higher = more abundant; growth selection in yeast, the domain comes from the species named
Details: Homo sapiens
With D13T the abundance fitness was 0.012 ± 0.065. Work on D13I yielded an abundance fitness of -0.082 ± 0.082. Work on D13S yielded an abundance fitness of -0.189 ± 0.055. D13Y gave an abundance fitness of -0.209 ± 0.039. For D13M, the abundance fitness was -0.16 ± 0.05. For D13R, the abundance fitness was -0.165 ± 0.04. Variant D13F has an abundance fitness of -0.293 ± 0.057. D13H gave an abundance fitness of -0.16 ± 0.057. With D18E the abundance fitness was 0.052 ± 0.054. In the case of D18V, the abundance fitness is reported as -0.257 ± 0.044. In the case of D18F, the abundance fitness is reported as -0.238 ± 0.12. Variant D18S has an abundance fitness of 0.009 ± 0.046. With D18W the abundance fitness was -0.2 ± 0.042. For D18Q, the abundance fitness was -0.152 ± 0.044. Work on D18T yielded an abundance fitness of -0.1 ± 0.074. W39S gave an abundance fitness of -0.138 ± 0.048. For W39F, the abundance fitness was -0.114 ± 0.13. With W39D the abundance fitness was -0.819 ± 0.15. With W39M the abundance fitness was -0.35 ± 0.13. Work on W39R yielded an abundance fitness of -0.902 ± 0.12. Q5V showed an abundance fitness of -0.065 ± 0.043. Work on Q5K yielded an abundance fitness of -0.075 ± 0.088. Q5I gave an abundance fitness of -0.072 ± 0.18. Q5F showed an abundance fitness of -0.158 ± 0.084. Variant Q5N has an abundance fitness of -0.062 ± 0.31. For Q5S, the abundance fitness was -0.065 ± 0.044. For Q5R, the abundance fitness was 0.023 ± 0.039. Work on A8N yielded an abundance fitness of -0.853 ± 0.33. Work on A8W yielded an abundance fitness of -1.03 ± 0.31. Variant A8R has an abundance fitness of -0.887 ± 0.15. Variant A8E has an abundance fitness of -0.674 ± 0.21. Variant A8C has an abundance fitness of -0.196 ± 0.13. A8S gave an abundance fitness of -0.714 ± 0.15. With D29F the abundance fitness was -0.408 ± 0.062. For D29W, the abundance fitness was -0.312 ± 0.068. With D29Y the abundance fitness was -0.285 ± 0.096. Variant F50R has an abundance fitness of -0.968 ± 0.12. F50M gave an abundance fitness of -0.31 ± 0.04. Work on F50D yielded an abundance fitness of -0.839 ± 0.26. With A14P the abundance fitness was -0.371 ± 0.042. In the case of A14F, the abundance fitness is reported as -0.782 ± 0.32. With A14V the abundance fitness was -0.871 ± 0.1. Variant A14C has an abundance fitness of -0.284 ± 0.059. A14K gave an abundance fitness of -0.195 ± 0.053. For G45D, the abundance fitness was -0.075 ± 0.076. Variant G45M has an abundance fitness of -0.161 ± 0.082. Work on G45W yielded an abundance fitness of -0.702 ± 0.17. For G45V, the abundance fitness was -0.762 ± 0.095. Variant G45I has an abundance fitness of -0.639 ± 0.21. In the case of G45L, the abundance fitness is reported as -0.416 ± 0.038. Work on L9M yielded an abundance fitness of -0.213 ± 0.075. Work on L9P yielded an abundance fitness of -0.822 ± 0.17. Work on L9A yielded an abundance fitness of -0.315 ± 0.052. Work on L9K yielded an abundance fitness of -0.187 ± 0.041. L9D gave an abundance fitness of -0.451 ± 0.078. L9R showed an abundance fitness of -0.291 ± 0.042. Variant L9C has an abundance fitness of -0.222 ± 0.068. In the case of L9I, the abundance fitness is reported as -0.375 ± 0.13. Variant L9N has an abundance fitness of -0.232 ± 0.063. L9H gave an abundance fitness of -0.367 ± 0.073. With N53Y the abundance fitness was -0.22 ± 0.1. In the case of N53E, the abundance fitness is reported as -0.078 ± 0.066. For N53K, the abundance fitness was -0.066 ± 0.089. Work on N53G yielded an abundance fitness of -0.027 ± 0.043. Work on N53P yielded an abundance fitness of -0.516 ± 0.12. For S36T, the abundance fitness was -0.085 ± 0.043. Work on S36N yielded an abundance fitness of -0.381 ± 0.12. In the case of S36K, the abundance fitness is reported as 0.147 ± 0.071. With V55G the abundance fitness was -0.94 ± 0.11. With V55E the abundance fitness was -0.945 ± 0.13. With V55C the abundance fitness was -0.197 ± 0.063. In the case of V55W, the abundance fitness is reported as -0.645 ± 0.066. V55I showed an abundance fitness of -0.27 ± 0.15. In the case of V55M, the abundance fitness is reported as -0.534 ± 0.086. Q47S showed an abundance fitness of -0.16 ± 0.076. Variant Q47P has an abundance fitness of -0.32 ± 0.1. With Q47Y the abundance fitness was 0.248 ± 0.15. Q47C gave an abundance fitness of -0.236 ± 0.1. Q47V gave an abundance fitness of 0.041 ± 0.065. Work on Q47G yielded an abundance fitness of -0.451 ± 0.042. In the case of Q47T, the abundance fitness is reported as 0.005 ± 0.087. Work on Q47R yielded an abundance fitness of -0.099 ± 0.055. Variant Q47L has an abundance fitness of -0.194 ± 0.066. In the case of I31S, the abundance fitness is reported as -0.58 ± 0.05. Variant I31M has an abundance fitness of -0.051 ± 0.078. In the case of I31T, the abundance fitness is reported as -0.2 ± 0.032. For I31P, the abundance fitness was -0.87 ± 0.15. Variant L43K has an abundance fitness of -0.453 ± 0.075. Work on L43C yielded an abundance fitness of -0.267 ± 0.11. In the case of L43V, the abundance fitness is reported as -0.063 ± 0.037. L43T showed an abundance fitness of -0.113 ± 0.061. L43I showed an abundance fitness of 0.062 ± 0.099. Variant L43M has an abundance fitness of 0.101 ± 0.076. L43F showed an abundance fitness of 0.014 ± 0.07. Y54D showed an abundance fitness of -0.949 ± 0.06. Y54Q gave an abundance fitness of -0.43 ± 0.088. In the case of Y54P, the abundance fitness is reported as -0.814 ± 0.23. In the case of Y54G, the abundance fitness is reported as -0.713 ± 0.089. For Y54E, the abundance fitness was -0.97 ± 0.23. In the case of Y54K, the abundance fitness is reported as -0.158 ± 0.049. R44D showed an abundance fitness of -0.019 ± 0.073. R44L gave an abundance fitness of -0.164 ± 0.049. With R44S the abundance fitness was -0.08 ± 0.055. In the case of R44W, the abundance fitness is reported as -0.467 ± 0.12. For R44Q, the abundance fitness was -0.071 ± 0.036. R44K showed an abundance fitness of -0.181 ± 0.096. Variant R44M has an abundance fitness of -0.179 ± 0.057. R44H showed an abundance fitness of -0.236 ± 0.12. Variant R44F has an abundance fitness of -0.134 ± 0.096. G37T showed an abundance fitness of -0.375 ± 0.09. In the case of G37R, the abundance fitness is reported as -0.574 ± 0.053. G37C showed an abundance fitness of -0.584 ± 0.059. G37Q showed an abundance fitness of -0.448 ± 0.099. For G37A, the abundance fitness was -0.573 ± 0.043. In the case of G37F, the abundance fitness is reported as -0.797 ± 0.31. G37I gave an abundance fitness of -0.52 ± 0.24. In the case of G37E, the abundance fitness is reported as -0.481 ± 0.049. Variant G37L has an abundance fitness of -0.617 ± 0.095. For D26R, the abundance fitness was -0.948 ± 0.089. D26G gave an abundance fitness of -0.986 ± 0.094. With D26W the abundance fitness was -0.987 ± 0.2. D26K showed an abundance fitness of -1.07 ± 0.3. D26S showed an abundance fitness of -0.522 ± 0.065. Variant D26Y has an abundance fitness of -0.776 ± 0.19. T56H gave an abundance fitness of 0.044 ± 0.12. For T56I, the abundance fitness was -0.261 ± 0.13. With T56Y the abundance fitness was -0.197 ± 0.34. For T56M, the abundance fitness was 0.023 ± 0.058. Work on T56R yielded an abundance fitness of -0.097 ± 0.046. Variant T56W has an abundance fitness of -0.122 ± 0.076. Variant T56F has an abundance fitness of -0.023 ± 0.062. Variant T56N has an abundance fitness of -0.078 ± 0.05. With P51F the abundance fitness was -0.302 ± 0.25. Variant P51V has an abundance fitness of -0.94 ± 0.12. With P51A the abundance fitness was -0.341 ± 0.05. P51Y gave an abundance fitness of -0.425 ± 0.48. P51G showed an abundance fitness of -0.771 ± 0.066. For P51K, the abundance fitness was -0.18 ± 0.094. For I28L, the abundance fitness was 0.237 ± 0.46. K7M gave an abundance fitness of -0.092 ± 0.053. K7D gave an abundance fitness of -1.02 ± 0.1. K7H gave an abundance fitness of -0.122 ± 0.041. K7P gave an abundance fitness of -0.945 ± 0.064. Variant K7R has an abundance fitness of -0.114 ± 0.04. With K7I the abundance fitness was 0.004 ± 0.075. In the case of I27F, the abundance fitness is reported as -0.274 ± 0.099. For I27A, the abundance fitness was -0.47 ± 0.057. Variant I27P has an abundance fitness of -0.681 ± 0.24. I27M showed an abundance fitness of -0.156 ± 0.065. I27G showed an abundance fitness of -0.927 ± 0.062. With I27K the abundance fitness was -0.228 ± 0.042. I27S showed an abundance fitness of -0.655 ± 0.087. Variant I27N has an abundance fitness of -0.233 ± 0.093. Variant D34A has an abundance fitness of -0.031 ± 0.051. With D34Q the abundance fitness was -0.431 ± 0.092. Work on D34P yielded an abundance fitness of -0.15 ± 0.043. D34S gave an abundance fitness of -0.126 ± 0.044. For D34G, the abundance fitness was -0.118 ± 0.063. With L49R the abundance fitness was 0.09 ± 0.05. L49I showed an abundance fitness of -0.219 ± 0.077. Work on L49W yielded an abundance fitness of -0.157 ± 0.062. In the case of S21A, the abundance fitness is reported as -0.263 ± 0.057. S21C showed an abundance fitness of -0.219 ± 0.032. With S21L the abundance fitness was -0.939 ± 0.11. S21E showed an abundance fitness of -0.247 ± 0.039. For T40L, the abundance fitness was -0.058 ± 0.041. T40W showed an abundance fitness of -0.062 ± 0.051.
